This passage reports Kd results from paper PMC6461108 (2019).

For this assay, the target named is S-peptide S-peptide (Bos taurus, UniProt P61823). Put plainly: ITC. A general note: In ITC the heat of successive injections is recorded.
Chain of S-peptide S-peptide (P61823 27-46): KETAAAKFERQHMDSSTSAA

B1: RNase S-protein S-protein (protein)
chain: SSSNYCNQMMKSRNLTKDRCKPVNTFVHESLADVQAVCSQKNVACKNGQTNCYQSYSTMSITDCRETGSSKYPNCAYKTTQANKHIIVACEGNPYVPVHFDASV
As a reminder, the Kd is the constant that tells how readily two partners part at equilibrium. Low readings indicate a tighter complex, high ones a looser complex. In turn, B1 yielded a Kd of 130 nM.
